According to the supplement of paper PMC9112550, “Optimization of the antimicrobial peptide Bac7 by deep mutational scanning” (BMC Biology, 2022):

System: Escherichia coli TOP10
Assay: shrunken log2 fold change of peptide-encoding DNA abundance (4.5 h post-induction vs induction); higher = less antimicrobial activity (less host growth inhibition)
Settings: time post-induction: 4.5 h; library: site-saturation at positions 5, 18, 19, 20
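Note: peptides expressed intracellularly from a pBAD plasmid library in pooled LB shake-flask culture, induced with 0.3% L-arabinose, DNA abundance read by NGS, three biological replicates, DESeq2 with apeglm shrinkage.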

Sequence	shrunken log2 fold change
RRIRIRPPRLPRPRPRPDSTPRP	0.00478
RRIRYRPPRLPRPRPRPAKIPRP	-0.0227
RRIRCRPPRLPRPRPRPATCPRP	-0.0745
RRIRVRPPRLPRPRPRPQVWPRP	0.345
RRIRGRPPRLPRPRPRPYGYPRP	0.158
RRIRARPPRLPRPRPRPNDKPRP	-0.129
RRIRARPPRLPRPRPRPPDIPRP	0.289
RRIRTRPPRLPRPRPRPQHFPRP	-0.0212
RRIRYRPPRLPRPRPRPVFCPRP	-0.419
RRIRQRPPRLPRPRPRPFKEPRP	0.343
RRIRARPPRLPRPRPRPCLPPRP	0.0185
RRIRWRPPRLPRPRPRPDPRPRP	0.751
RRIRARPPRLPRPRPRPTAKPRP	1.36
RRIRDRPPRLPRPRPRPMTGPRP	0.0274
RRIRYRPPRLPRPRPRPAVHPRP	-0.0328
RRIRTRPPRLPRPRPRPEMNPRP	0.00876
RRIRVRPPRLPRPRPRPLFMPRP	-0.663
RRIRVRPPRLPRPRPRPGSLPRP	-0.363
RRIRYRPPRLPRPRPRPKAMPRP	-0.0317
RRIRVRPPRLPRPRPRPQFKPRP	-0.576
RRIRKRPPRLPRPRPRPCWQPRP	0.154
RRIRSRPPRLPRPRPRPMDYPRP	0.0691
RRIRIRPPRLPRPRPRPVITPRP	-0.553
RRIRTRPPRLPRPRPRPCREPRP	0.0664
RRIRMRPPRLPRPRPRPWKIPRP	-0.0114

Sequence	shrunken log2 fold change
RRIRGRPPRLPRPRPRPACHPRP	0.889
RRIRHRPPRLPRPRPRPYEKPRP	-0.195
RRIRCRPPRLPRPRPRPANDPRP	-0.799
RRIRARPPRLPRPRPRPSCEPRP	0.128
RRIRFRPPRLPRPRPRPEVSPRP	-0.149
RRIRFRPPRLPRPRPRPAKHPRP	-0.149
RRIRHRPPRLPRPRPRPGTMPRP	-0.0455
RRIRSRPPRLPRPRPRPCDSPRP	-0.207
RRIRVRPPRLPRPRPRPSCHPRP	0.292
RRIRGRPPRLPRPRPRPRNNPRP	0.346
RRIRQRPPRLPRPRPRPPDGPRP	0.351
RRIRPRPPRLPRPRPRPDALPRP	0.0315
RRIRRRPPRLPRPRPRPRNQPRP	-0.0577
RRIRNRPPRLPRPRPRPNLYPRP	-0.515
RRIRHRPPRLPRPRPRPVVWPRP	0.524
RRIRWRPPRLPRPRPRPEPWPRP	0.725
RRIRVRPPRLPRPRPRPGWQPRP	0.545
RRIRKRPPRLPRPRPRPIVRPRP	-0.0167
RRIRYRPPRLPRPRPRPYRIPRP	-0.731
RRIRERPPRLPRPRPRPIKYPRP	-0.351
RRIRHRPPRLPRPRPRPSIWPRP	-0.244
RRIRWRPPRLPRPRPRPVWLPRP	0.284
RRIRYRPPRLPRPRPRPLPMPRP	-0.624
RRIRARPPRLPRPRPRPWVGPRP	0.271
RRIRGRPPRLPRPRPRPCIYPRP	0.0369

Sequence	shrunken log2 fold change
RRIRWRPPRLPRPRPRPVIMPRP	-0.273
RRIRDRPPRLPRPRPRPMWAPRP	-0.0235
RRIRNRPPRLPRPRPRPNTRPRP	-0.115
RRIRDRPPRLPRPRPRPDDNPRP	0.153
RRIRRRPPRLPRPRPRPNFHPRP	0.75
RRIRKRPPRLPRPRPRPLRFPRP	0.896
RRIRARPPRLPRPRPRPMETPRP	-0.0508
RRIRYRPPRLPRPRPRPCLDPRP	-0.125
RRIRQRPPRLPRPRPRPASIPRP	-0.0578
RRIRNRPPRLPRPRPRPDSRPRP	-0.0141
RRIRWRPPRLPRPRPRPDISPRP	-0.135
RRIRSRPPRLPRPRPRPMICPRP	-0.0898
RRIRIRPPRLPRPRPRPFQCPRP	0.00367
RRIRYRPPRLPRPRPRPDGMPRP	0.0112
RRIRGRPPRLPRPRPRPYTMPRP	-0.342
RRIRERPPRLPRPRPRPTSDPRP	-0.0201
RRIRWRPPRLPRPRPRPLRVPRP	0.874
RRIRQRPPRLPRPRPRPHGTPRP	-0.0865
RRIRMRPPRLPRPRPRPRMQPRP	0.598
RRIRSRPPRLPRPRPRPVGLPRP	0.107
RRIRIRPPRLPRPRPRPNYVPRP	-0.115
RRIRARPPRLPRPRPRPQRDPRP	0.225
RRIRERPPRLPRPRPRPQQGPRP	-0.219
RRIRNRPPRLPRPRPRPTDVPRP	-0.0793
RRIRLRPPRLPRPRPRPHGDPRP	-0.0331
